The target of assay [1] is T1, rat NPR1-ANP complex (rat).
T1 chain 1: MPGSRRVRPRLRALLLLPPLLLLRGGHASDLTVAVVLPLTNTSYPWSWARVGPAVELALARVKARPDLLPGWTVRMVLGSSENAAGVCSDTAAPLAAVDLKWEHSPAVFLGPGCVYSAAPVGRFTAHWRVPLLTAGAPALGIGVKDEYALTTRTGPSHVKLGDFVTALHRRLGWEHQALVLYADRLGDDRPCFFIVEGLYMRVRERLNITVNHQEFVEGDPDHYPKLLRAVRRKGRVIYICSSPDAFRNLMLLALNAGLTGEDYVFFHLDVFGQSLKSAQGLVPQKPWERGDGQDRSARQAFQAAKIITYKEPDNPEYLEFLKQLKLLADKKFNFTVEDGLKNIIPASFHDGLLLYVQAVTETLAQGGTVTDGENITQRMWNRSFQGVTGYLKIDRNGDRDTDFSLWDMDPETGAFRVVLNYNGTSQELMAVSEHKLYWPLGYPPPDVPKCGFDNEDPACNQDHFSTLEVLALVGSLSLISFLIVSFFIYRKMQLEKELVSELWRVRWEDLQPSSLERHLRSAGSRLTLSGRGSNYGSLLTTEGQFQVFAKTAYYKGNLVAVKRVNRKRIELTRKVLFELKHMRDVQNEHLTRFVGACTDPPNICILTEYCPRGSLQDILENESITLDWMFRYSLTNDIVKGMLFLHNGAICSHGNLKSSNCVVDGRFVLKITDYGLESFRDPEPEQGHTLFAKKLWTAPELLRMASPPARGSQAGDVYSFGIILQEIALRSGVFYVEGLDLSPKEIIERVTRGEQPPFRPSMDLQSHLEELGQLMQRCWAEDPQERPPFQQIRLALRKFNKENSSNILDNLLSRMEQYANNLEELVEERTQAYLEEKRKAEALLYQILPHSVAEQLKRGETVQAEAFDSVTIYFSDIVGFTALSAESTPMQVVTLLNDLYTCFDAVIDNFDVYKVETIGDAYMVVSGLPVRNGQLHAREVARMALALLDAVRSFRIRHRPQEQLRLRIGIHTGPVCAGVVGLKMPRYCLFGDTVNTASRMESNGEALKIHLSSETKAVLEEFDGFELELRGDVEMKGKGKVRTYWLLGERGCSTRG
T1 chain 2: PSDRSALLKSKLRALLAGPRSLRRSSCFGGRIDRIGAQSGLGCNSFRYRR
In words: ELISA.

Assay [2] has as its target T2, human NPR1 W74R (human).
T2 chain: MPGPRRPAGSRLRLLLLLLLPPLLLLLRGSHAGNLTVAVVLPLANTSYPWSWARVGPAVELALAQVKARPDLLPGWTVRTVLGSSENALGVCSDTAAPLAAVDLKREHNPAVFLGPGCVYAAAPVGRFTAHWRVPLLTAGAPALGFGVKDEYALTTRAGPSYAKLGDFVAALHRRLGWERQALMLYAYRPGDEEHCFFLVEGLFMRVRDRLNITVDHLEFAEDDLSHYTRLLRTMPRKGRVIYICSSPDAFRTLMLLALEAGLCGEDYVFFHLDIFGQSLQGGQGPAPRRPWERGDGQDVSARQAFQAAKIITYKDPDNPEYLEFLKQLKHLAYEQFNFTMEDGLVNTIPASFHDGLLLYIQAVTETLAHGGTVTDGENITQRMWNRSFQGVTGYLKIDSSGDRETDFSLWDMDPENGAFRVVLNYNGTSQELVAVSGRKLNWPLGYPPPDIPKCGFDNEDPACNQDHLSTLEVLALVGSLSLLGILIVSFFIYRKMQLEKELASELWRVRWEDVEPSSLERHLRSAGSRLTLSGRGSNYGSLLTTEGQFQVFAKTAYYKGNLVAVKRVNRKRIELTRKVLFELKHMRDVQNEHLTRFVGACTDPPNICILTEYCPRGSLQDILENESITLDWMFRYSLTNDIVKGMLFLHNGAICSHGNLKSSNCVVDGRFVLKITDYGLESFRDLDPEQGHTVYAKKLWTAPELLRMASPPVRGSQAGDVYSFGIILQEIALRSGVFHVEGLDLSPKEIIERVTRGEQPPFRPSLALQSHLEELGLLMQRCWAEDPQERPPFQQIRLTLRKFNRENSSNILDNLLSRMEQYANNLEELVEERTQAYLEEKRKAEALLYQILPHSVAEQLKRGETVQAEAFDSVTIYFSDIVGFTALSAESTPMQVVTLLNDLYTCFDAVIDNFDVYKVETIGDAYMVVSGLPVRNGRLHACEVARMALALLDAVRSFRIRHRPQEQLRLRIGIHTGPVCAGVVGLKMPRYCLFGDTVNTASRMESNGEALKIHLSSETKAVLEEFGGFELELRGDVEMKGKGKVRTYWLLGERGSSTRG
In words: ELISA. (In general: ELISA stands for enzyme-linked immunosorbent assay.)

The target of assay [3] is T3, rat NPR1 (rat).
T3 chain: T1 chain 1
In words: ELISA.

Assay [4] has as its target T4, human NPR1-ANP complex (human).
T4 chain 1: T2 chain with R106W
T4 chain 2: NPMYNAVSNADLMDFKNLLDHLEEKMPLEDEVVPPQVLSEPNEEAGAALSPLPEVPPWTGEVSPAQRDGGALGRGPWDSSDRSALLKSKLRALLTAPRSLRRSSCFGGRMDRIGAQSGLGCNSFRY
In words: ELISA.

The target in assay [5] is T5, human NPR1 (human).
T5 chain: T2 chain with R106W
In words: ELISA.

In assay [6] the target is T6, human NPR3 + ANP (human, UniProt P17342).
T6 chain 1: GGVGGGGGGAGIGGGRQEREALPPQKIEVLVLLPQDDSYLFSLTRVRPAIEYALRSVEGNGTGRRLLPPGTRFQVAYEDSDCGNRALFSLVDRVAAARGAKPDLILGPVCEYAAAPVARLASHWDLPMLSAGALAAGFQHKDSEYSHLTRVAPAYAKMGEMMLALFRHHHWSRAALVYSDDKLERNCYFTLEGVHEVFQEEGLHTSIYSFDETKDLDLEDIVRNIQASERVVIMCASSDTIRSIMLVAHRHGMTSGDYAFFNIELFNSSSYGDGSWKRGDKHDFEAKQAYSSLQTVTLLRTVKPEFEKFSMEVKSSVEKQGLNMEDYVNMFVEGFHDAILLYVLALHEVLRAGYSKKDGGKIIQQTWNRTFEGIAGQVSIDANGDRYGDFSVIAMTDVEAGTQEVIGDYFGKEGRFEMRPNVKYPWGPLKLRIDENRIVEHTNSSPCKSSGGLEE
T6 chain 2: T4 chain 2
In words: ELISA.

In assay [7] the target is T7, human NPR3 (human, UniProt P17342).
T7 chain: T6 chain 1
In words: ELISA.

The target of assay [8] is T8, human NPR1 W74R + ANP (human).
T8 chain 1: T2 chain
T8 chain 2: T4 chain 2
In words: ELISA.

The target in assay [9] is T4, human NPR1-ANP complex. In words: SPR.
Assay [10] addresses T5, human NPR1. In words: SPR. In general terms: SPR reads the build-up and loss of mass on a sensor chip optically.
The target in assay [11] is T4, human NPR1-ANP complex. In words: SPR.
The target of assay [12] is T5, human NPR1. In words: SPR.
Assay [13] concerns the target T8, human NPR1 W74R + ANP. In words: ELISA.
In assay [14] the target is T2, human NPR1 W74R. In words: ELISA.
In assay [15] the target is T5, human NPR1. In words: ELISA.

Residue numbers refer to the chain shown, from its start. Where two headings read alike, the source gives them in different places.

B1: WW06 IgG (antibody, V domains shown)
VH: QVQLVQSGAEVKKPGESLKISCKGSGYSFTSYWIAWVRQMPGKGLEWMGRIDPDNSYTRYSPSFQGQVTISADKSISTAYLQWSSLKASDTAMYYCARWLSPGYALGEQPAGMDHWGQGTLVTVSS
VL: DIVLTQPPSVSGAPGQRVTISCTGSSSNIGAGYAVHWYQQLPGTAPKLLIYSNNKRPSGVPDRFSGSKSGTSASLAITGLQAEDEADYYCQSYDLQKSSRVFGGGTKLTVL
Turning to B1, the binding result in assay [1], in [3], in [6] and in assay [7] was “no binding” each time. Further, the EC50 in assay [2] is 0.9 nM; in assay [4] it was 1.1 nM; in assay [5], 2.5 nM; in [8] it was 0.8 nM.

B2: WW06 FabCys (antibody, V domains shown)
VH: B1 VH
VL: B1 VL
As to B2, the Kd in assay [9] was determined as 12 nM; in assay [10] it was 5.3 nM; in assay [11], 12 nM; in assay [12], 5.3 nM.

B3: WW01 IgG (antibody, V domains shown)
VH: QVQLLESGGGLVQPGGSLRLSCAASGFTFNTHYIHWVRQAPGKGLEWVSSISGSGSNTYYADSVKGRFTISRDNSKNTLYLQMNSLRAEDTAVYYCARERGYVYYHMFDPWGQGTLVTVSS
VL: DIVLTQSPATLSLSPGERATLSCRASQSITRNYLAWYQQKPGQAPRLLIYGASSRATGIPARFSGSGSGTDFTLTISSLEPEDFAVYYCQQHSMYPRTFGQGTKVEIK
Regarding B3, the binding result in [1], in [13], in assay [14], in assay [3], in [15] and in [6] was “no binding” in each case. Moreover, the binding result in assay [7] was “no binding”.

What is called EC50 is the concentration at which the effect is half-maximal. In general, Kd refers to a measure of binding affinity in units of concentration. Low readings indicate higher affinity, high ones lower affinity.

The values are drawn from US20230365674 (published 2023).
